Assay results taken from patent publication US20110263454A1, “Methods of Identifying Functional Characteristics of Promoters, Transcription Modifying Proteins and Transcription Modulating Agents” (Salk Institute for Biological Studies, priority 2008, published 2011).

B1: ERR3: Estrogen Related Receptor γ (NR3B3, ERRg), cDNA driver (protein, UniProt P62508 1-458, looked up)
Estrogen-related receptor …: MDSVELCLPESFSLHYEEELLCRMSNKDRHIDSSCSSFIKTEPSSPASLTDSVNHHSPGGSSDASGSYSSTMNGHQNGLDSPPLYPSAPILGGSGPVRKLYDDCSSTIVEDPQTKCEYMLNSMPKRLCLVCGDIASGYHYGVASCEACKAFFKRTIQGNIEYSCPATNECEITKRRRKSCQACRFMKCLKVGMLKEGVRLDRVRGGRQKYKRRIDAENSPYLNPQLVQPAKKPYNKIVSHLLVAEPEKIYAMPDPTVPDSDIKALTTLCDLADRELVVIIGWAKHIPGFSTLSLADQMSLLQSAWMEILILGVVYRSLSFEDELVYADDYIMDEDQSKLAGLLDLNNAILQLVKKYKSMKLEKEEFVTLKAIALANSDSMHIEDVEAVQKLQDVLHEALQDYEAGQHMEDPRRAGKMLMTLPLLRQTSTKAVQHFYNIKLEGKVPMHKLFLEMLEAKV
B2: CTF3: COUP-TF3 (NR2F6), cDNA driver (protein, UniProt P10588 1-404, looked up)
Nuclear receptor subfamily 2 …: MAMVTGGWGGPGGDTNGVDKAGGYPRAAEDDSASPPGAASDAEPGDEERPGLQVDCVVCGDKSSGKHYGVFTCEGCKSFFKRSIRRNLSYTCRSNRDCQIDQHHRNQCQYCRLKKCFRVGMRKEAVQRGRIPHSLPGAVAASSGSPPGSALAAVASGGDLFPGQPVSELIAQLLRAEPYPAAAGRFGAGGGAAGAVLGIDNVCELAARLLFSTVEWARHAPFFPELPVADQVALLRLSWSELFVLNAAQAALPLHTAPLLAAAGLHAAPMAAERAVAFMDQVRAFQEQVDKLGRLQVDSAEYGCLKAIALFTPDACGLSDPAHVESLQEKAQVALTEYVRAQYPSQPQRFGRLLLRLPALRAVPASLISQLFFMRLVGKTPIETLIRDMLLSGSTFNWPYGSGQ
B3: PR: Progesterone Receptor (NR3C3), cDNA driver (protein, UniProt P06401 1-933, looked up)
Progesterone receptor: MTELKAKGPRAPHVAGGPPSPEVGSPLLCRPAAGPFPGSQTSDTLPEVSAIPISLDGLLFPRPCQGQDPSDEKTQDQQSLSDVEGAYSRAEATRGAGGSSSSPPEKDSGLLDSVLDTLLAPSGPGQSQPSPPACEVTSSWCLFGPELPEDPPAAPATQRVLSPLMSRSGCKVGDSSGTAAAHKVLPRGLSPARQLLLPASESPHWSGAPVKPSPQAAAVEVEEEDGSESEESAGPLLKGKPRALGGAAAGGGAAAVPPGAAAGGVALVPKEDSRFSAPRVALVEQDAPMAPGRSPLATTVMDFIHVPILPLNHALLAARTRQLLEDESYDGGAGAASAFAPPRSSPCASSTPVAVGDFPDCAYPPDAEPKDDAYPLYSDFQPPALKIKEEEEGAEASARSPRSYLVAGANPAAFPDFPLGPPPPLPPRATPSRPGEAAVTAAPASASVSSASSSGSTLECILYKAEGAPPQQGPFAPPPCKAPGASGCLLPRDGLPSTSASAAAAGAAPALYPALGLNGLPQLGYQAAVLKEGLPQVYPPYLNYLRPDSEASQSPQYSFESLPQKICLICGDEASGCHYGVLTCGSCKVFFKRAMEGQHNYLCAGRNDCIVDKIRRKNCPACRLRKCCQAGMVLGGRKFKKFNKVRVVRALDAVALPQPVGVPNESQALSQRFTFSPGQDIQLIPPLINLLMSIEPDVIYAGHDNTKPDTSSSLLTSLNQLGERQLLSVVKWSKSLPGFRNLHIDDQITLIQYSWMSLMVFGLGWRSYKHVSGQMLYFAPDLILNEQRMKESSFYSLCLTMWQIPQEFVKLQVSQEEFLCMKVLLLLNTIPLEGLRSQTQFEEMRSSYIRELIKAIGLRQKGVVSSSQRFYQLTKLLDNLHDLVKQLHLYCLNTFIQSRALSVEFPEMMSEVIAAQLPKILAGMVKPLLFHKK
B4: hMR: Mineralocorticoid Receptor (NR3C2, MR), cDNA driver (protein, UniProt P08235 1-984, looked up)
Mineralocorticoid receptor: METKGYHSLPEGLDMERRWGQVSQAVERSSLGPTERTDENNYMEIVNVSCVSGAIPNNSTQGSSKEKQELLPCLQQDNNRPGILTSDIKTELESKELSATVAESMGLYMDSVRDADYSYEQQNQQGSMSPAKIYQNVEQLVKFYKGNGHRPSTLSCVNTPLRSFMSDSGSSVNGGVMRAVVKSPIMCHEKSPSVCSPLNMTSSVCSPAGINSVSSTTASFGSFPVHSPITQGTPLTCSPNVENRGSRSHSPAHASNVGSPLSSPLSSMKSSISSPPSHCSVKSPVSSPNNVTLRSSVSSPANINNSRCSVSSPSNTNNRSTLSSPAASTVGSICSPVNNAFSYTASGTSAGSSTLRDVVPSPDTQEKGAQEVPFPKTEEVESAISNGVTGQLNIVQYIKPEPDGAFSSSCLGGNSKINSDSSFSVPIKQESTKHSCSGTSFKGNPTVNPFPFMDGSYFSFMDDKDYYSLSGILGPPVPGFDGNCEGSGFPVGIKQEPDDGSYYPEASIPSSAIVGVNSGGQSFHYRIGAQGTISLSRSARDQSFQHLSSFPPVNTLVESWKSHGDLSSRRSDGYPVLEYIPENVSSSTLRSVSTGSSRPSKICLVCGDEASGCHYGVVTCGSCKVFFKRAVEGQHNYLCAGRNDCIIDKIRRKNCPACRLQKCLQAGMNLGARKSKKLGKLKGIHEEQPQQQQPPPPPPPPQSPEEGTTYIAPAKEPSVNTALVPQLSTISRALTPSPVMVLENIEPEIVYAGYDSSKPDTAENLLSTLNRLAGKQMIQVVKWAKVLPGFKNLPLEDQITLIQYSWMCLSSFALSWRSYKHTNSQFLYFAPDLVFNEEKMHQSAMYELCQGMHQISLQFVRLQLTFEEYTIMKVLLLLSTIPKDGLKSQAAFEEMRTNYIKELRKMVTKCPNNSGQSWQRFYQLTKLLDSMHDLVSDLLEFCFYTFRESHALKVEFPAMLVEIISDQLPKVESGNAKPLYFHRK
B5: CTF1: COUP-TF1 (NR2F1), cDNA driver (protein, UniProt P10589 1-423, looked up)
COUP transcription factor 1: MAMVVSSWRDPQDDVAGGNPGGPNPAAQAARGGGGGAGEQQQQAGSGAPHTPQTPGQPGAPATPGTAGDKGQGPPGSGQSQQHIECVVCGDKSSGKHYGQFTCEGCKSFFKRSVRRNLTYTCRANRNCPIDQHHRNQCQYCRLKKCLKVGMRREAVQRGRMPPTQPNPGQYALTNGDPLNGHCYLSGYISLLLRAEPYPTSRYGSQCMQPNNIMGIENICELAARLLFSAVEWARNIPFFPDLQITDQVSLLRLTWSELFVLNAAQCSMPLHVAPLLAAAGLHASPMSADRVVAFMDHIRIFQEQVEKLKALHVDSAEYSCLKAIVLFTSDACGLSDAAHIESLQEKSQCALEEYVRSQYPNQPSRFGKLLLRLPSLRTVSSSVIEQLFFVRLVGKTPIETLIRDMLLSGSSFNWPYMSIQCS
B6: CTF2: COUP-TF2 (NR2F2), cDNA driver (protein, UniProt P24468 1-414, looked up)
COUP transcription factor 2: MAMVVSTWRDPQDEVPGSQGSQASQAPPVPGPPPGAPHTPQTPGQGGPASTPAQTAAGGQGGPGGPGSDKQQQQQHIECVVCGDKSSGKHYGQFTCEGCKSFFKRSVRRNLSYTCRANRNCPIDQHHRNQCQYCRLKKCLKVGMRREAVQRGRMPPTQPTHGQFALTNGDPLNCHSYLSGYISLLLRAEPYPTSRFGSQCMQPNNIMGIENICELAARMLFSAVEWARNIPFFPDLQITDQVALLRLTWSELFVLNAAQCSMPLHVAPLLAAAGLHASPMSADRVVAFMDHIRIFQEQVEKLKALHVDSAEYSCLKAIVLFTSDACGLSDVAHVESLQEKSQCALEEYVRSQYPNQPTRFGKLLLRLPSLRTVSSSVIEQLFFVRLVGKTPIETLIRDMLLSGSSFNWPYMAIQ

tested on: hPOMC promoter; assay: NHR-promoter luciferase screen, hPOMC promoter; format: cell-based, human; details: hPOMC promoter-luciferase, NHR +/- ligand, control = 1.0
Procedure, shortened: (§1)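 CV-1 cells were co-transfected with 50 ng NHR (homodimer or NHR/RXR heterodimer), 100 ng promoter-luciferase construct and 50 ng LacZ. Luciferase was normalized to LacZ and to a no-NHR/no-ligand control.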

B1 was tested, and the “luciferase/LacZ, hPOMC (selected results)” value was 4.1.

same assay, conditions: hPOMC promoter; HR/ligand component

In order of rising “Luc. act., normalized to lacZ” value:
1. B2  1.8
2. B3  3.2
3. B1  17.6

In order of falling “Normalized Luc. act., normalized to control” value:
1. B1  4.1
2. B3  0.7
3. B2  0.4
4. B4  0.0
5. B5  0.0
6. B6  0.0

same assay, conditions: transcription factor +/- ligand; control = 1.00

In order of rising “hPOMC promoter reporter activity” value:
1. B4  0.00
2. B5  0.00
3. B6  0.00
4. B2  0.42
5. B3  0.75
6. B1  4.09

tested on: mGhrelin promoter; assay: NHR-promoter luciferase screen, mGhrelin promoter; format: cell-based, mouse; details: Table 8; mGhrelin
Procedure, shortened: as §1

In order of rising “Luc. act., normalized to lacZ” value:
1. B4  49.7
2. B3  53.6
3. B2  68.4
4. B5  113.8
5. B1  145.9
6. B6  173.3

In order of rising “Normalized Luc. act., normalized to control” value:
1. B3  1.0
2. B4  1.0
3. B2  1.3
4. B5  2.2
5. B1  2.8
6. B6  3.3

same assay, conditions: Table 6d; luciferase activity relative to control (control = 1.00)

In order of falling “Results of assays of transcription factor (+/- ligand) with mGhrelin” value:
1. B6  3.32
2. B1  2.79
3. B5  2.18
4. B2  1.31
5. B3  1.03
6. B4  0.95

tested on: mLeptin promoter; assay: NHR-promoter luciferase screen, mLeptin promoter; format: cell-based, mouse; details: Table 7; mLeptin
Procedure, shortened: as §1

In order of rising “Luc. act., normalized to lacZ” value:
1. B4  1.7
2. B3  2.2
3. B1  2.4
4. B2  2.7
5. B5  3.1
6. B6  3.8

In order of falling “Normalized Luc. act., normalized to control” value:
1. B6  1.3
2. B5  1.1
3. B2  0.9
4. B3  0.8
5. B1  0.8
6. B4  0.6

same assay, conditions: Table 6d; luciferase activity relative to control (control = 1.00)

In order of falling “Results of assays of transcription factor (+/- ligand) with mLeptin” value:
1. B6  1.31
2. B5  1.07
3. B2  0.92
4. B1  0.80
5. B3  0.76
6. B4  0.57

tested on: hMDR1 promoter; assay: NHR-promoter luciferase screen, hMDR1 promoter; format: cell-based, human; details: MDR1 promoter; HR/ligand component
Procedure, shortened: as §1

In order of rising “Luc. act., normalized to lacZ” value:
1. B4  0.1
2. B1  0.2
3. B5  0.3
4. B6  0.3
5. B2  0.4
6. B3  0.4

In order of rising “Normalized Luc. act., normalized to control” value:
1. B4  0.3
2. B1  0.8
3. B5  0.9
4. B6  1.0
5. B3  1.3
6. B2  1.4

same assay, conditions: transcription factor +/- ligand; control = 1.00

In order of falling “hMDR1 promoter reporter activity” value:
1. B2  1.36
2. B3  1.35
3. B6  1.01
4. B5  0.92
5. B1  0.79
6. B4  0.34

tested on: mUCP3 promoter; assay: NHR-promoter luciferase screen, mUCP3 promoter; format: cell-based, mouse; details: mUCP3 promoter reporter; HR without or with its ligand; relative to control
Procedure, shortened: as §1

In order of rising “Normalized Luc. act., normalized to control” value:
1. B4  0.7
2. B2  0.8
3. B5  0.9
4. B6  0.9
5. B3  1.3
6. B1  3.1

same assay, conditions: mUCP3 promoter reporter; hormone receptor (HR) without or with its ligand

In order of rising “Luc. act., normalized to lacZ” value:
1. B4  0.50
2. B2  0.6
3. B5  0.6
4. B6  0.6
5. B3  0.86
6. B1  2.1

same assay, conditions: transcription factor +/- ligand; control = 1.00

In order of rising “mUCP3 promoter reporter activity” value:
1. B4  0.74
2. B2  0.82
3. B6  0.91
4. B5  0.93
5. B3  1.27
6. B1  3.06
